From publication PMC6954417

Experiments:
RAD52 (human) [1] = target: RAD52 (human) (UniProt P43351)
RAD52 (human) [2] = target: RAD52 (human) (UniProt P43351); remark: listed apart in the source
RAD52 (human) [3] = target: RAD52 (human) (UniProt P43351); remark: listed apart in the source
[4] = target: His6-RAD52;DSS1 (Homo sapiens;Homo sapiens) (UniProt P43351+P60896); assay: competition (FRET); conditions: 8 nM RAD52-DSS1 on 1 nM Cy3-dT30-Cy5; ssDNA EMSA: 30 mM Tris-acetate pH 7.5, 1 mM DTT, RT, 0.1% glutaraldehyde; FRET: same buffer + 0.1 mg/ml BSA, 25 C; dsDNA EMSA: 30 mM KPi pH 7.4, 1 mM DTT …; scale: nM base pairs for almost complete ssDNA release
His6-RAD52;DSS1 (Homo sapiens;Homo sapiens), sequence (P60896 whole entry, one chain of several): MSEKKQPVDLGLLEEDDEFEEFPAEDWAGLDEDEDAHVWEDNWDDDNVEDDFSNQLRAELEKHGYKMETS

[5] = target: T1, His6-RAD52 (Homo sapiens) (UniProt P43351); assay: competition (FRET); conditions: 8 nM RAD52 on 1 nM Cy3-dT30-Cy5; ssDNA EMSA: 30 mM Tris-acetate pH 7.5, 1 mM DTT, RT, 0.1% glutaraldehyde; FRET: same buffer + 0.1 mg/ml BSA, 25 C; dsDNA EMSA: 30 mM KPi pH 7.4, 1 mM DTT …; scale: nM base pairs for nearly complete ssDNA release
T1 sequence: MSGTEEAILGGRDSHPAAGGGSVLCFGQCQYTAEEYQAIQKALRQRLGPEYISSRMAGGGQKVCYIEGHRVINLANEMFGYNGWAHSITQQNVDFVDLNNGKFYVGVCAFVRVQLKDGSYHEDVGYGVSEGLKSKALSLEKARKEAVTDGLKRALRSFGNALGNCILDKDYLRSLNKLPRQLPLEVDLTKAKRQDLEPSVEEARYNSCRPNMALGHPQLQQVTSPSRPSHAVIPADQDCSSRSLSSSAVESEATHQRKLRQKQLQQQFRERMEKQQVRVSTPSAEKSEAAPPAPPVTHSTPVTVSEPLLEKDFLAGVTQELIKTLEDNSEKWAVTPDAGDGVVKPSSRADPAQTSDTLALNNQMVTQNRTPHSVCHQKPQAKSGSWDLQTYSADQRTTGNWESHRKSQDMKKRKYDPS

Row | Substance | gel-based single-strand annealing of 3'-overhang substrates, increasing RAD52 or pre-formed RAD52-DSS1 (1:1): maximum yield (optimum at 120 nM complex against 480 nM RAD52 alone) (RAD52 (human) [1]) | D-loop formation with a 90-mer ssDNA and supercoiled plasmid, RAD52 or RAD52-DSS1 (1:1) at 150-3200 nM: yield (10% for RAD52 alone at 800 nM) (RAD52 (human) [2]) | FRET-based annealing of complementary 28-mers, 8 nM RAD52 with 40 nM DSS1, no RPA: initial rate (RAD52 alone 5.2 bp/s) (RAD52 (human) [3]) | binding signal [4] | binding signal [5]
1 | DSS1 (natural protein) | 65% | 20% | 17.5 bp/s | – | –
2 | PhiX174 RF I DNA, ApaLI-linearized | – | – | – | 50 | 200
